Measurements: paper doi:10.1101/432138

Target: P02671
Experiment: SEC-MALS

B1: Fib1 fibrinogen (protein)
chain 1: GPRVVERHQSACKDSDWPFCSDEDWNYKCPSGCRMKGLIDEVNQDFTNRINKLKNSLFEYQKNNKDSHSLTTNIMEILRGDFSSANNRDNTYNRVSEDLRSRIEVLKRKVIEKVQHIQLLQKNVRAQLVDMKRLEVDIDIKIRSCRGSCSRALAREVDLKDYEDQQKQLEQVIAKDLLPSRDRQHLPLIKMKPVPDLVPGNFKSQLQKVPPEWKALTDMPQMRMELERPGGNEITRGGSTSYGTGSETESPRNPSSAGSWNSGSSGPGSTGNRNPGSSGTGGTATWKPGSSGPGSTGSWNSGSSGTGSTGNQNPGSPRPGSTGTWNPGSSERGSAGHWTSESSVSGSTGQWHSESGSFRPDSPGSGNARPNNPDWGTFEEVSGNVSPGTRREYHTEKLVTSKGDKELRTGKEKVTSGSTTTTRRSCSKTVTKTVIGPDGHKEVTKEVVTSEDGSDCPEAMDLGTLSGIGTLDGFRHRHPDEAAFFDTASTGKTFPGFFSPMLGEFVSETESRGSESGIFTNTKESSSHHPGIAEFPSRGKSSSYSKQFTSSTSYNRGDSTFESKSYKMADEAGSEADHEGTHSTKRGHAKSRPVRDCDDVLQTHPSGTQSGIFNIKLPGSSKIFSVYCDQETSLGGWLLIQQRMDGSLNFNRTWQDYKRGFGSLNDEGEGEFWLGNDYLHLLTQRGSVLRVELEDWAGNEAYAEYHFRVGSEAEGYALQVSSYEGTAGDALIEGSVEEGAEYTSHNNMQFSTFDRDADQWEENCAEVYGGGWWYNNCQAANLNGIYYPGGSYDPRNNSPYEIENGVVWVSFRGADYSLRAVRMKIRPLVTQ
chain 2: GHRPLDKKREEAPSLRPAPPPISGGGYRARPAKAAATQKKVERKAPDAGGCLHADPDLGVLCPTGCQLQEALLQQERPIRNSVDELNNNVEAVSQTSSSSFQYMYLLKDLWQKRQKQVKDNENVVNEYSSELEKHQLYIDETVNSNIPTNLRVLRSILENLRSKIQKLESDVSAQMEYCRTPCTVSCNIPVVSGKECEEIIRKGGETSEMYLIQPDSSVKPYRVYCDMNTENGGWTVIQNRQDGSVDFGRKWDPYKQGFGNVATNTDGKNYCGLPGEYWLGNDKISQLTRMGPTELLIEMEDWKGDKVKAHYGGFTVQNEANKYQISVNKYRGTAGNALMDGASQLMGENRTMTIHNGMFFSTYDRDNDGWLTSDPRKQCSKEDGGGWWYNRCHAANPNGRYYWGGQYTWDMAKHGTDDGVVWMNWKGSWYSMRKMSMKIRPFFPQQ
chain 3: YVATRDNCCILDERFGSYCPTTCGIADFLSTYQTKVDKDLQSLEDILHQVENKTSEVKQLIKAIQLTYNPDESSKPNMIDAATLKSRKMLEEIMKYEASILTHDSSIRYLQEIYNSNNQKIVNLKEKVAQLEAQCQEPCKDTVQIHDITGKDCQDIANKGAKQSGLYFIKPLKANQQFLVYCEIDGSGNGWTVFQKRLDGSVDFKKNWIQYKEGFGHLSPTGTTEFWLGNEKIHLISTQSAIPYALRVELEDWNGRTSTADYAMFKVGPEADKYRLTYAYFAGGDAGDAFDGFDFGDDPSDKFFTSHNGMQFSTWDNDNDKFEGNCAEQDGSGWWMNKCHAGHLNGVYYQGGTYSKASTPNGYDNGIIWATWKTRWYSMKKTTMKIIPFNRLTIGEGQQHHLGGAKQVRPEHPAETEYDSLYPEDDL
relative mass of the aggregates: about 4% of the total mass of fibrinogen
